This experiment concerns the target NDM-type carbapenemase (New Delhi metallo-β-lactamase), recombinant. The experiment in a line: indirect ELISA, plate coated with 0.2 µg/mL NDM carbapenemase, goat anti-mouse secondary antibody, TMB. As to conditions: scale: reciprocal dilution. In general terms: An ELISA detects its analyte on a solid surface through an enzyme-linked reagent.

Among the data in patent publication EP4261278A1 are titer values, retold here.

B1: anti-NDM-type carbapenemase mouse mAb 1GH10 (antibody, V domains shown)
VH: SRDYGLRVELVRPGTSVKVSCKASGYAFSNYLIEWVKQRPGQGLEWIGVINPGRDDTNYNEKFKGKATLTADKSSSTAYMHLSSLTSDDSAVYFCARFPSILRYDSGSFSYFGLDCWGQGTSVTVSS
VL: DVLMTQTPLSLSVSLGDQASISCRSSQSIVHSDGNTYLDWYLQKPGQSPKLLIYKVSNRFSGVPDRFSGSGSGTDFTLKITRVEAEDLGVYYCFQISRVPFTFGSGTKLEIKR
For B1, the titer is more than 1.28e+06.

B2: anti-NDM-type carbapenemase mouse mAb 12HE11 (antibody, V domains shown)
VH: VQLHESGPELVKPGASVKLSCTASGYTLSDYHVKWVKQNHGQSLEWIGDIRPQNGDIVYNQKFKDKATLTVDKSSTTAYIRLSSLTSEDSAVYYCAFHYYAYGKWFPYWGQGTLVTVS
VL: DILMTQSPSSLTVTAGEKVTLSCRSSQSLFNSGNQKNYLTWHQQKPGQSPKLLIYWAVTRESGVPDRFTGSGSGTDFTLTISSVQAEDLAIYYCQNDYSYPLTFGAGTKLELK
Regarding B2, the titer is more than 1.28e+06.
